Test results taken from patent US9428586B2, “Heparanase splice variant” (COMPUGEN LTD, priority 2010, dated 2016).

How the values were obtained:
heparanase = molecular target: T1, heparanase (Homo sapiens, UniProt Q9Y251); experiment: Inhibition of purified active heparanase by peptides (35S-labeled ECM degradation); assay type: biochemical; conditions: peptide 50 μg/ml; purified active heparanase 40 ng
T1 construct: the 8 kDa portion and the 50 kDa portion form a heterodimer, which is enzymatically active
T1 sequence (Q9Y251 36-109 limits assumed): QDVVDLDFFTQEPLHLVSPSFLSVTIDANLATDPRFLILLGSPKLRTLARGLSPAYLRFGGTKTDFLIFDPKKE
T1 sequence (Q9Y251 158-543 limits assumed): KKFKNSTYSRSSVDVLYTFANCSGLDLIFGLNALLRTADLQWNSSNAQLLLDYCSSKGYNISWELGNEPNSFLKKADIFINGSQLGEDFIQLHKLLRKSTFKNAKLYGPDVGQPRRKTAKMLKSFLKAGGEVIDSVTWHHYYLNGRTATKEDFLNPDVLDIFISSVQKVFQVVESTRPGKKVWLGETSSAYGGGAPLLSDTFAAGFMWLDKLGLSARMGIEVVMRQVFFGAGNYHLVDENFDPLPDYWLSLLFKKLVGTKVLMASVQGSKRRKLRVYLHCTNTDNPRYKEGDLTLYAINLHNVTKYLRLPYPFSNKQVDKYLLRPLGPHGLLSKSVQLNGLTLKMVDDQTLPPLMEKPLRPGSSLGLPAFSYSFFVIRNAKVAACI
Description: (§1) FIG. 7. […] A. Cell lysates. […] B,C. Peptide analysis. […] C. Enzymatic activity.
(§2) Preparation of cell lysates, protein blotting, and measurement of heparanase enzymatic activity were carried out as described previously (Zetser, A., et al., 2006, Cancer Res 66, 1455-1463; Fux, L., et al., 2009, Cancer Res 69, 1758-1767).

Binding to heparin beads = conditions: gel electrophoresis prior to or following incubation with heparin beads
Description: as §1

Src [1] = experiment: Src phosphorylation (immunoblot, densitometry) in CAG myeloma cells; assay type: cell-based, human; conditions: serum-free
Description: (§3) FIG. 3. T5 augments Src phosphorylation. A. Over expression. CAG myeloma (left) and 293 (right) cells infected with heparanase (Hepa), T5, or control empty vector (Vo) were grown in the absence (−) or presence (+) of heparin (50 μg/ml) under serum-free conditions. Total cell lysates were subjected to immunoblotting applying anti-heparanase 1453 (upper and second panels), anti-phospho-Src (p-Src, third panels), anti-Src (fourth panels) anti-phospho-Erk (p-Erk, fifth panels), and anti-Erk2 (sixth panels) antibodies. Src phosphorylation index was calculated by densitometry analysis of phosphorylated Src levels divided by the total Src values. Data is presented as average fold increase ±SE of Src phosphorylation compared with control, Vo cells, set arbitrary to a value of 1 (lower panels) of five independent experiments. B. Gene silencing. Parental 293 cells were transfected with anti-heparanase, anti-T5, or control siRNAs. Total RNA was extracted and RT-PCR analysis was performed applying T5 (upper panel), heparanase (Hepa, second panel) and GAPDH (third panel) specific primers. Corresponding cell lysates were subjected to immunoblotting applying phospho-Src (p-Src, fourth panel), Src (fifth panel), phospho-Erk (p-Erk, sixth panel) and Erk2 (seventh panel) antibodies. Src phosphorylation index was calculated as above and is shown graphically in the lower panel. Note decreased Src phosphorylation levels upon T5 down regulation.
as §2

293 cells = experiment: T5 and heparanase levels in cell conditioned medium with heparin (immunoblot); assay type: cell-based, human; conditions: heparin 50 μg/ml, 20 h, serum-free
Description: as §1

T5 = T5 protein bands in T5-transfected 293 cells treated with tunicamycin or chloroquine (immunoblot); assay type: cell-based, human; conditions: tunicamycin 10, 20 μg/ml
Description: FIG. 2. Cloning and expression of T5. A. RT-PCR analysis. Total RNA was extracted from the indicated cell line and subjected to RT-PCR analysis applying T5 (upper panel), heparanase (second panel) and GAPDH (third panel) specific primers, specified in the ‘Materials and Methods’ section. B. T5 transfection. […] Control cells were transfected with an empty vector (Vo). Cell lysates (left) and cell conditioned medium (right) were blotted with anti-heparanase 1453 antibody. C. Cellular localization. Stably transfected 293 cells were triple stained for Myc-tag (T5; middle, red), the ER marker calnexin (ER, left, green), and merged with cell nuclei labeled with TO-PRO (right, blue). Cells were similarly stained with anti-Myc-tag (T5; middle, red), the Golgi marker wheat germ agglutinin-FITC (Golgi, left, green) and merged with cell nuclei labeled with TO-PRO (right, blue). […] D. Enzymatic activity. 293 cells transfected with heparanase (Hepa), T5 or control empty vector (Vo) were subjected to three freeze-thaw cycles and applied onto culture dishes coated with ^35S-labelled ECM. Release of sulfate-labeled material eluted in fractions 15-30 was evaluated as measure of heparanase activity, as described in ‘Materials and Methods’. […]

CAG myeloma cells [2] = experiment: Cell proliferation by BrdU incorporation, CAG myeloma cells; assay type: cell-based, human; conditions: infected CAG cells, serum-free 20 h, BrdU 2 h; control Vo 24±3%
Description: (§4) FIG. 4. T5 augments cell proliferation. A. BrdU incorporation. Morphology of control (Con), heparanase (Hepa)- and T5-infected CAG myeloma cell cultures is shown in the upper panels. […] Sub-confluent cultures of control (Vo), heparanase (Hepa)- and T5-infected CAG cells were grown in serum-free medium for 20 h followed by incubation with BrdU (1:1000) for 2 h. Cells were then fixed and immunostained with anti BrdU monoclonal antibody. Positively stained, red-brown nuclei were counted vs. blue, hematoxilin counter-stained nuclei. At least 1000 cells were counted for each cell type and the percentage of positively stained cells is noted in each panel. Fold increase in BrdU incorporation is shown graphically on the right panel. Gene silencing. 293 cells were transfected with anti-GFP (si-GFP), anti-heparanase (si-Hepa) or anti-T5 siRNA oligonucleotides and BrdU incorporation was evaluated as above except that cells were kept in serum-containing medium (lower panels). Note 2-fold decrease in BrdU incorporation following heparanase or T5 gene silencing (lower right panel). B. Colony formation in soft agar. […]
Cell proliferation was analyzed by BrdU incorporation using cell proliferation labeling reagent (1:1000, GE Healthcare), as described in Zetser, A., et al (2003 Cancer Res 63, 7733-7741). At least 1000 cells were counted for each cell type.

[3] = system: CAG myeloma, FaDu pharynx carcinoma and 293 cells; experiment: Colony formation in soft agar; assay type: cell-based, human; conditions: over expression in CAG myeloma, FaDu and 293 cells
Description: as §4
Three ml of DMEM containing 0.5% low melt agarose (Bio-Rad, Hercules, Calif.) and 10% fetal calf serum was poured into 60 mm petri dishes. […] Colonies were visualized and counted under a microscope after 2-5 weeks, as described.

Erk = Erk phosphorylation (immunoblot) in CAG myeloma and 293 cells; assay type: cell-based, human
Description: as §3, with “Note decreased Src phosphorylation levels upon T5 down regulation.” left out

CAG myeloma cells [4] = experiment: CAG myeloma tumor xenograft development and immunohistochemistry; assay type: in vivo, athymic nude mice
Description: FIG. 5. T5 enhances tumor xenograft development. Control (Vo), heparanase-, and T5-infected CAG myeloma cells were injected subcutaneously (1×10^6/0.1 ml) and tumor volume was calculated (A). At the end of the experiment on day 37, tumors were resected, photographed (A, inset) and weighted (B). C. Immunohistochemical analysis. Paraffin-embedded 5 micron sections were stained with hematoxilin & eosin (left column), anti-CD31 (second left column), and anti-smooth muscle actin (SMA, two right columns) antibodies. Note increased blood vessels density and maturation (recruitment of SMA-positive cells) in xenografts produced by heparanase- and T5-infected cells. Cells from exponential cultures of control-, heparanase-, and T5-infected CAG myeloma cells were detached with trypsin/EDTA, washed with PBS and brought to a concentration of 1×10^7 cells/ml. Cell suspension (1×10 6/0.1 ml) was inoculated subcutaneously at the right flank of 5-weeks old female athymic nude mice (n=7). Xenograft size was determined twice a week by externally measuring tumors in two dimensions using a caliper. At the end of the experiment, mice were sacrificed and xenografts were removed, weighted and fixed in formalin. Paraffin-embedded 5 micron sections were subjected to immunostaining with anti-PECAM-1 (CD31) or anti-smooth muscle actin (1A4, Sigma) antibodies, using the Envision kit, according to the manufacturer's (Dako, Glostrup, Denmark) instructions, as described (Fux, L., et al., 2009, Cancer Res 69, 1758-1767). All animal experiments were approved by the Animal Care Committee of the Technion, Haifa, Israel.

Src [5] = experiment: Src phosphorylation (immunoblot, densitometry) in 293 cells; assay type: cell-based, human; conditions: over expressing 293 cells, serum-free
Description: as §3, with “(-)” for “(−)”, “Data is presented as average fold increase ±SE of Src phosphorylation compared with control, Vo cells, set arbitrary to a value of 1 (lower panels) of five independent experiments.” left out, “regulation. […]” for “regulation.”

[6] = CAG xenografts, immunohistochemistry

CKKFKNSTYSSKK [CKKK]
inhibition of heparanase enzymatic activity (heparanase): failed to interact with heparin or to inhibit heparanase enzymatic activity
interaction of peptide with heparin (Binding to heparin beads): failed to interact with heparin

heparin
effect of heparin on Src phosphorylation enhanced by heparanase or T5 (Src [1]; heparin 50 μg/ml, CAG myeloma and 293 cells): not affected
T5 levels in the cell culture medium upon addition of heparin (293 cells): not affected
heparanase levels in the cell culture medium upon addition of heparin (293 cells): markedly increased

tunicamycin
amount of the ˜17 kDa T5 band (T5): markedly reduced

B1: heparanase: full length wild type human heparanase, endo-β-D-glucuronidase (protein)
chain: QDVVDLDFFTQEPLHLVSPSFLSVTIDANLATDPRFLILLGSPKLRTLARGLSPAYLRFGGTKTDFLIFDPKKESTFEERSYWQSQVNQDICKYGSIPPDVEEKLRLEWPYQEQLLLREHYQKKFKNSTYSRSSVDVLYTFANCSGLDLIFGLNALLRTADLQWNSSNAQLLLDYCSSKGYNISWELGNEPNSFLKKADIFINGSQLGEDFIQLHKLLRKSTFKNAKLYGPDVGQPRRKTAKMLKSFLKAGGEVIDSVTWHHYYLNGRTATKEDFLNPDVLDIFISSVQKVFQVVESTRPGKKVWLGETSSAYGGGAPLLSDTFAAGFMWLDKLGLSARMGIEVVMRQVFFGAGNYHLVDENFDPLPDYWLSLLFKKLVGTKVLMASVQGSKRRKLRVYLHCTNTDNPRYKEGDLTLYAINLHNVTKYLRLPYPFSNKQVDKYLLRPLGPHGLLSKSVQLNGLTLKMVDDQTLPPLMEKPLRPGSSLGLPAFSYSFFVIRNAKVAACI
Src phosphorylation increase vs control Vo cells (Src [1]; infected CAG myeloma cells): ~3 fold
BrdU incorporation (positively stained cells) (CAG myeloma cells [2]): 49±6%
colony number, size and cell density in soft agar [3]: markedly increased
Erk phosphorylation upon over expression (Erk): not affected
micro vessel density (CD31) (CAG myeloma cells [4]; [6]): two-fold increase in vessel density
pericytes associated with blood vessels (smooth muscle actin) (CAG myeloma cells [4]; [6]): significantly increased number of pericytes
average weight of xenografts (CAG myeloma cells [4]; day 37, subcutaneous infected CAG cells, control 58±11 mg): 648 ± 69 mg
development of tumor xenografts after day 21 vs control cells (CAG myeloma cells [4]; subcutaneous infected CAG cells): markedly enhanced
Src phosphorylation enhancement vs control Vo cells (Src [5]): ~4 fold
